According to patent US20200199241A1 (Chugai, published 2020):
Positions count from the first letter of the chain named. Names may count otherwise.

T1: FcγRIIb (human, UniProt P31994 43-217, limits assumed)
T1 construct: SPR analyte; also called FcγIIB; CD32
T1 sequence: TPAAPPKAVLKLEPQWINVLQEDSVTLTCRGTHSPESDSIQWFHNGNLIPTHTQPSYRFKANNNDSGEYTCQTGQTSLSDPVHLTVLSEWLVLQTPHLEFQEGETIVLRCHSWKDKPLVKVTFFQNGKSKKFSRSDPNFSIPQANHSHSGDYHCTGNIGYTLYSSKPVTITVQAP

T2: FcγRIIa type R (human, UniProt P12318 36-217)
T2 construct: SPR analyte; also called FcγRIIaR; FcγRIIa(R)
T2 chain: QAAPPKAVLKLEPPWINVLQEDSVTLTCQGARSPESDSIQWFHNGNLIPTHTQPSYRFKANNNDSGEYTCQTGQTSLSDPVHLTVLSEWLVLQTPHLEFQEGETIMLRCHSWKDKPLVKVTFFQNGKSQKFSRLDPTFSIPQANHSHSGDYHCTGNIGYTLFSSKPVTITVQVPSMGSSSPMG

T3: human FcγRIIb (human, UniProt P31994 43-217, limits assumed)
T3 construct: also called FcγIIB
T3 sequence: T1 sequence

T4: human FcγRIIa type R (human, UniProt P12318 36-217)
T4 construct: also called FcγRIIaR; FcγRIIa(R)
T4 chain: T2 chain

T5: human FcγRIIa(H) (human, UniProt P12318 36-217)
T5 construct: also called hFcgRIIa(H); FcγRIIa type H
T5 sequence: T2 chain with R133H

T6: human FcγRIIb (human, UniProt P31994 43-217, limits assumed)
T6 construct: also called hFcgRIIb; FcγIIB
T6 sequence: T1 sequence

T7: human FcγRIIa(R) (human, UniProt P12318 36-217)
T7 construct: also called hFcgRIIa(R); FcγRIIa type R
T7 chain: T2 chain

T8: FcγRIIa type H (human, UniProt P12318 36-217)
T8 construct: SPR analyte; also called FcγRIIaH
T8 sequence: T2 chain with R133H

B1: IL6R-BP082/IL6R-L (antibody, human IgG1)
heavy: QVQLQESGPGLVKPSETLSLTCAVSGHSISHDHAWSWVRQPPGEGLEWIGFISYSGITNYNPSLQGRVTISRDNSKNTLYLQMNSLRAEDTAVYYCARSLARTTAMDYWGEGTLVTVSSASTKGPSVFPLAPSSKSTSGGTAALGCLVKDYFPEPVTVSWNSGALTSGVHTFPAVLQSSGLYSLSSVVTVPSSSLGTQTYICNVNHKPSNTKVDKKVEPKSCDKTHTCPPCPAPDLLGGDSVFLFPPKPKDTLMISRTPEVTCVVVDVSHEDPEVKFNWYVDGVEVHNAKTKPREEQYNSTYRVVSVLTVLHQDWLNGKEYKCKVSNKALPKPIEKTISKAKGQPREPQVYTLPPSRDELTKNQVSLTCLVKGFYPSDIAVEWESNGQPENNYKTTPPVLDSDGSFFLYSKLTVDKSRWQQGNVFSCSVMHEALHNHYTQESLSLSP
light: DIQMTQSPSSLSASVGDRVTITCRASQDISSYLNWYQQKPGKAPKLLIYYTSRLHSGVPSRFSGSGSGTDFTFTISSLQPEDIATYYCQQGNTLPYTFGQGTKVEIK
B2: IL6R-PD043/IL6R-L (antibody, human IgG1)
heavy: B1 heavy with D235E, L236Y, M254Y, K332A, N436Y, E441K
light: B1 light
notes: Alteration introduced into IL6R-F11; also called P238D/L234Y; L234Y/P238D
B3: IL6R-PD079/IL6R-L (antibody, human IgG1)
heavy: B1 heavy with D235E, G239A, M254Y, K332A, N436Y, E441K
light: B1 light
notes: Alteration introduced into IL6R-F11; also called P238D/G237A; G237A/P238D
B4: IL6R-PD081/IL6R-L (antibody, human IgG1)
heavy: B1 heavy with D235E, G239E, M254Y, K332A, N436Y, E441K
light: B1 light
notes: Alteration introduced into IL6R-F11; also called P238D/G237E; G237E/P238D
B5: IL6R-PD042/IL6R-L (antibody, human IgG1)
heavy: B1 heavy with D235E, L236W, M254Y, K332A, N436Y, E441K
light: B1 light
notes: Alteration introduced into IL6R-F11; also called P238D/L234W; L234W/P238D
B6: IL6R-PD080/IL6R-L (antibody)
chain 1: B1 heavy with D235E, G239D, M254Y, K332A, N436Y, E441K
chain 2: not shown
B7: antibody with VH3-IgG1-F938 heavy chain and L(WT)-CK light chain (antibody)
heavy: B1 heavy with D235E, L237K, D240P, S241K, M254Y, K332A, N436Y, Y438V, E441K
light: not shown
notes: L235K/S239K on VH3-IgG1-F890; copies: 2 + 2
B8: antibody with VH3-IgG1-F1315 heavy chain and L(WT)-CK light chain (antibody)
heavy: B1 heavy with D235E, G239K, D240P, S241K, M254Y, K332A, N436Y, Y438V, E441K
light: not shown
notes: G237K/S239K on VH3-IgG1-F890; copies: 2 + 2
B9: antibody with VH3-IgG1-F1318 heavy chain and L(WT)-CK light chain (antibody)
heavy: B1 heavy with D235E, D240P, S241K, M254Y, P331R, K332A, N436Y, Y438V, E441K
light: not shown
notes: S239K/P329R on VH3-IgG1-F890; copies: 2 + 2
B10: antibody with VH3-IgG1-F1325 heavy chain and L(WT)-CK light chain (antibody)
heavy: B1 heavy with D235E, L236A, L237A, D240P, M254Y, N299A, K332A, N436Y, Y438V, E441K
light: not shown
notes: L234A/L235A/N297A on VH3-IgG1-F890; copies: 2 + 2
B11: antibody with VH3-IgG1-F1316 heavy chain and L(WT)-CK light chain (antibody)
heavy: B1 heavy with D235E, G239R, D240P, S241K, M254Y, K332A, N436Y, Y438V, E441K
light: not shown
notes: G237R/S239K on VH3-IgG1-F890; copies: 2 + 2
B12: antibody with VH3-IgG1-F1333 heavy chain and L(WT)-CK light chain (antibody)
heavy: B1 heavy with D235E, L237R, G238R, D240P, S241K, M254Y, K332A, N436Y, Y438V, E441K
light: not shown
notes: L235R/G236R/S239K on VH3-IgG1-F890; copies: 2 + 2
B13: antibody with VH3-IgG1-F1356 heavy chain and L(WT)-CK light chain (antibody)
heavy: B1 heavy with D235E, G238R, D240P, M254Y, L330R, K332A, N436Y, Y438V, E441K
light: not shown
notes: G236R/L328R on VH3-IgG1-F890; copies: 2 + 2
B14: antibody with VH3-IgG1-F1317 heavy chain and L(WT)-CK light chain (antibody)
heavy: B1 heavy with D235E, D240P, S241K, M254Y, P331K, K332A, N436Y, Y438V, E441K
light: not shown
notes: S239K/P329K on VH3-IgG1-F890; copies: 2 + 2
B15: IL6R-F652/IL6R-L (antibody, human IgG1)
heavy: B1 heavy with D235E, M254Y, K332A, N436Y, E441K
light: B1 light
notes: IL6R-F11 with P238D (EU numbering)

Molecular target: T1, FcγRIIb
Assay: ratio of SPR KDs; reference IL6R-B3/IL6R-L

Row | Binder | KD(IIb) of the parent polypeptide/KD(IIb) of altered polypeptide
1 | B1 | 5.8

Molecular target: T2, FcγRIIa type R
Assay: ratio of SPR KDs; stronger receptor here FcγRIIaR; reference IL6R-B3/IL6R-L (FcγRIIaH)
Text: (§1) Furthermore, KD(IIaR)/KD(IIb) and KD(IIaH)/KD(IIb) in the table respectively represent the value obtained by dividing the KD value of each variant for FcγRIIaR by the KD value of each variant for FcγRIIb, and the value obtained by dividing the KD value of each variant for FcγRIIaH by the KD value of each variant for FcγRIIb. KD(IIb) of the parent polypeptide/KD(IIb) of the altered polypeptide refers to the value obtained by dividing the KD value of the parent polypeptide for FcγRIIb by the KD value of each variant for FcγRIIb.

Row | Binder | KD of the stronger of FcγRIIaR/FcγRIIaH binding of the variant / that of the parent polypeptide
2 | B1 | 15.8

Molecular target: T1, FcγRIIb
Assay: ratio of SPR KDs: KD for FcγRIIaR over KD for FcγRIIb
Text: (§2) Furthermore, KD(IIaR)/KD(IIb) and KD(IIaH)/KD(IIb) in the table respectively represent the value obtained by dividing the KD value of each variant for FcγRIIaR by the KD value of each variant for FcγRIIb, and the value obtained by dividing the KD value of each variant for FcγRIIaH by the KD value of each variant for FcγRIIb.

Row | Binder | KD(IIaR)/KD(IIb)
3 | B1 | 22.8

Molecular target: T9, human FcγRIa (human, UniProt P12314 16-292, limits assumed)
T9 construct: also called CD64
Assay: SPR (Biacore), antibody captured, FcγR as analyte
T9 sequence (P12314 16-292 limits assumed): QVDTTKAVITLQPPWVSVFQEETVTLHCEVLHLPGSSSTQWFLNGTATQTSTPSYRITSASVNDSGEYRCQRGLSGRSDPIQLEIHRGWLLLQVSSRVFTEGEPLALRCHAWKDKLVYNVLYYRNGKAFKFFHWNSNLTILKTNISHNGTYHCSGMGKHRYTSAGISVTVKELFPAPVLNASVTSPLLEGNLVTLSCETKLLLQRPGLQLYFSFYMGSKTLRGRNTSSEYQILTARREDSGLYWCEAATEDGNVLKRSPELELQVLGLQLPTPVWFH

Row | Binder | Kd
4 | B2 | 0.075 µM
5 | B3 | 0.14 µM
6 | B4 | 0.34 µM
7 | B5 | 0.063 µM

Molecular target: T3, human FcγRIIb
Assay: SPR (Biacore), antibody captured, FcγR as analyte

Row | Binder | Kd
8 | B2 | 1.6 µM
9 | B3 | 3 µM
10 | B4 | 3.6 µM
11 | B5 | 2 µM

Molecular target: T4, human FcγRIIa type R
Assay: SPR (Biacore), antibody captured, FcγR as analyte

Row | Binder | Kd
12 | B6 | 21 µM
13 | B2 | 26 µM
14 | B3 | 32 µM
15 | B4 | 38 µM
16 | B5 | 16 µM

Molecular target: T3, human FcγRIIb
Assay: SPR (Biacore); KD for FcγRIIaR divided by KD for FcγRIIb of the same antibody

Row | Binder | KD(IIaR)/KD(IIb)
17 | B2 | 15.9
18 | B3 | 10.5
19 | B4 | 10.6
20 | B5 | 8.1

Molecular target: T3, human FcγRIIb
Assay: SPR (Biacore); ratio against parent IL6R-F11/IL6R-L

Row | Binder | KD(IIb) of parent polypeptide/KD(IIb) of altered polypeptide
21 | B2 | 4.2
22 | B3 | 2.3
23 | B4 | 1.9
24 | B5 | 3.4

Molecular target: T5, human FcγRIIa(H)
Assay: SPR, antibody captured by Protein L, human FcγR as analyte, pH 7.4, 25 C;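 note: biacore T100 or T200 with Protein L amine-coupled on a CM4 chip, FcγRs diluted in ACES saline with polysorbate 20, buffer-only injection as blank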

Row | Binder | BINDING AMOUNT (RU)
25 | B7 | -0.05 RU
26 | B8 | -1.37 RU
27 | B9 | -1.12 RU
28 | B10 | -0.62 RU
29 | B11 | -0.34 RU
30 | B12 | -0.56 RU
31 | B13 | -0.22 RU
32 | B14 | -0.76 RU

Molecular target: T6, human FcγRIIb
Assay: as above

Row | Binder | BINDING AMOUNT (RU)
33 | B7 | -0.14 RU
34 | B8 | 0.63 RU
35 | B9 | 0.26 RU
36 | B10 | 1.46 RU
37 | B11 | -0.44 RU
38 | B12 | -0.2 RU
39 | B13 | 0.63 RU
40 | B14 | -0.23 RU

Molecular target: T10, human FcγRIIIa(V) (human, UniProt P08637 17-208, limits assumed)
T10 construct: also called hFcgRIIIa(V); allotype V158
T10 sequence (P08637 other isoform, or with tags, fused parts or gaps limits assumed): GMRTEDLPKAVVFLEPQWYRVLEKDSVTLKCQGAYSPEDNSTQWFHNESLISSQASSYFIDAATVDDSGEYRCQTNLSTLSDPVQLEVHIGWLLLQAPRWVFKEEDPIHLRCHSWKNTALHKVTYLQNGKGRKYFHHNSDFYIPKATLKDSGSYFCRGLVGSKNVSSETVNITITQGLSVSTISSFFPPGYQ
Assay: as above

Row | Binder | BINDING AMOUNT (RU)
41 | B7 | 1.2 RU
42 | B8 | -2.69 RU
43 | B9 | -3.63 RU
44 | B10 | -2.4 RU
45 | B11 | -0.42 RU
46 | B12 | -1.42 RU
47 | B13 | 0.09 RU
48 | B14 | -2.76 RU

Molecular target: T7, human FcγRIIa(R)
Assay: as above

Row | Binder | BINDING AMOUNT (RU)
49 | B7 | -0.12 RU
50 | B8 | -1.14 RU
51 | B9 | -1.59 RU
52 | B10 | -1.17 RU
53 | B11 | -0.33 RU
54 | B12 | -0.15 RU
55 | B13 | -0.23 RU
56 | B14 | -1.48 RU

Molecular target: T11, human FcγRIa (human, UniProt P12314 16-292, limits assumed)
T11 construct: also called hFcgRIa; hFcgRI
Assay: as above
T11 sequence (P12314 16-292 limits assumed): as the sequence (P12314 16-292 limits assumed) above

Row | Binder | BINDING AMOUNT (RU)
57 | B7 | -0.49 RU
58 | B8 | -2.71 RU
59 | B9 | -0.31 RU
60 | B10 | -0.47 RU
61 | B11 | -0.12 RU
62 | B12 | -0.35 RU
63 | B13 | -0.9 RU
64 | B14 | -1.46 RU

Molecular target: T1, FcγRIIb
Assay: ratio of SPR KDs: KD for FcγRIIaH over KD for FcγRIIb
Text: as §2

Row | Binder | KD(IIaH)/KD(IIb)
65 | B1 | 69

Molecular target: T3, human FcγRIIb
Assay: SPR (Biacore), binding amount relative to IL6R-F652/IL6R-L = 100

Row | Binder | relative binding activity
66 | B2 | 112
67 | B3 | 101
68 | B15 | 100
69 | B4 | 101
70 | B5 | 106

Molecular target: T4, human FcγRIIa type R
Assay: as above

Row | Binder | relative binding activity
71 | B2 | 175
72 | B3 | 138
73 | B15 | 100
74 | B4 | 117
75 | B5 | 240

Molecular target: T1, FcγRIIb
Assay: SPR (Biacore), antibody captured, FcγR analyte
Text: as §1

Row | Binder | Kd
76 | B1 | 0.54 µM

Molecular target: T12, FcγRIa (human, UniProt P12314 16-292, limits assumed)
T12 construct: SPR analyte; also called CD64
T12 sequence (P12314 16-292 limits assumed): as above
Assay: SPR (Biacore), antibody captured, FcγR analyte
Text: as §1

Row | Binder | Kd
77 | B1 | 0.018 µM

Molecular target: T2, FcγRIIa type R
Assay: SPR (Biacore), antibody captured, FcγR analyte
Text: as §1

Row | Binder | Kd
78 | B1 | 12 µM

Molecular target: T13, FcγRIIIa type V (human, UniProt P08637 17-208, limits assumed)
T13 construct: SPR analyte; allotype V158 was used here; also called FcγRIIIaV; FcγRIIIa(V)
T13 sequence (P08637 other isoform, or with tags, fused parts or gaps limits assumed): as the sequence (P08637 other isoform, or with tags, fused parts or gaps limits assumed) above
Assay: SPR (Biacore), antibody captured, FcγR analyte
Text: as §1

Row | Binder | Kd
79 | B1 | 81 µM

Molecular target: T8, FcγRIIa type H
Assay: SPR (Biacore), antibody captured, FcγR analyte
Text: as §1

Row | Binder | Kd
80 | B1 | 37 µM

Molecular target: T3, human FcγRIIb
Assay: SPR (Biacore); KD for FcγRIIaH divided by KD for FcγRIIb of the same antibody

Row | Binder | KD(IIaH)/KD(IIb)
81 | B2 | 14.4
82 | B3 | 7
83 | B4 | 7
84 | B5 | 9.5
